The results in this text go back to PMC11984713.

The target of this assay is FLAG-SpbK (Bacillus subtilis (ICEBs1)).

YonE-Myc (natural protein): the fold decrease in cellular levels of NAD^+ 15 to 30 minutes after induction of yonE in cells expressing spbK (untagged proteins) was 100 fold.
